What was measured:
Experiment in all cases: MST
[1] = biological target: CurKC lyase domain (residues 1–217) (Thermomonospora curvata DSM43183)
[2] = biological target: AciKC lyase domain (residues 1–219)
[3] = biological target: CurKC, class III lanthipeptide synthetase from the biosynthesis of curvopeptin (full-length) (Thermomonospora curvata DSM43183)
[4] = biological target: CurKC leader recognition domain (LRD, residues 222–309), GB1 tag removed (Thermomonospora curvata DSM43183)
[5] = biological target: CurKC kinase domain (residues 218–489) (Thermomonospora curvata DSM43183)
[6] = biological target: CurKC lyase-kinase didomain (residues 1–489) (Thermomonospora curvata DSM43183)

Kd [1] [µM]	Kd [2] [µM]	Kd [3] [µM]	Kd [4] [µM]	Kd [5] [µM]	Kd [6] [µM]	Substance
14.8	43.9	–	–	–	–	AciKC kinase domain (residues 220–495) (domain or fragment)
–	–	5.5	1200	801	84	CurA leader peptide
170	209	–	–	–	–	CurKC kinase domain (residues 218–489) (domain or fragment)
139	–	–	–	–	–	CurKC leader recognition domain (LRD, residues 222–309), GB1 tag removed (domain or fragment)
